Test results as given in US5670316.

Target: RecA (UniProt P0A7G6)
Test: pulldown

RecA, sequence (P0A7G6 2-353): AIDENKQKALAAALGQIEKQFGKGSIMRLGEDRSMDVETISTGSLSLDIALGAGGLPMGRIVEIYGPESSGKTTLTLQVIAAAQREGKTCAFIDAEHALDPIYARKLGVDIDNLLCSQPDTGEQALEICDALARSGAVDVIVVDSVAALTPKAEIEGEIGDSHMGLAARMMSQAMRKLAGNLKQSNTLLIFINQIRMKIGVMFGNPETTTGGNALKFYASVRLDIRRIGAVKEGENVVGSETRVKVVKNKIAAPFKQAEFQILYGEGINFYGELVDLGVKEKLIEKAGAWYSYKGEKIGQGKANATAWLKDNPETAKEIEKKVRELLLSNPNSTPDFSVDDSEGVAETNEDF

| Substance | activity (bio-14-dATP incorporated, capture of 32P lambda DNA target, 3.7% without RecA, ATPgammaS, Mg acetate) | activity (capture of 32P lambda target with heterologous non-biotinylated probe, 3.1% without RecA (background)) |
| --- | --- | --- |
| lambda 1000-mer (6631-7630) nick-translated probe | 45.9% |  |
| phiX174 RFI nick-translated probe |  | 3.6% |
